Data from PMC7038937.

Columns and labels:
Assay in all cases: fluorescence anisotropy
[1] = molecular target: dsRBD3 I105A S106A (Homo sapiens, UniProt O95793-2 102-181, I105A;S106A)
[2] = molecular target: dsRBD3 E110A L113A (Homo sapiens, UniProt O95793-2 102-181, E110A;L113A)
[3] = molecular target: dsRBD3/4 F109A (Homo sapiens, UniProt O95793-2 102-274, F109A)
[4] = molecular target: STAU1 dsRBD4 (Homo sapiens, UniProt O95793-2 205-274)
[5] = molecular target: dsRBD4 Q212A Q215A (Homo sapiens, UniProt O95793-2 205-274, Q212A;Q215A)
[6] = molecular target: dsRBD3/4 S208A (Homo sapiens, UniProt O95793-2 102-274, S208A)
[7] = molecular target: dsRBD3/4 E110A L113A (Homo sapiens, UniProt O95793-2 102-274, E110A;L113A)
[8] = molecular target: dsRBD3/4 Q212A Q215A (Homo sapiens, UniProt O95793-2 102-274, Q212A;Q215A)
[9] = molecular target: STAU1 dsRBD3 (Homo sapiens, UniProt O95793-2 102-181)
[10] = molecular target: dsRBD3/4 I105A S106A (Homo sapiens, UniProt O95793-2 102-274, I105A;S106A)
[11] = molecular target: dsRBD3/4 R209A (Homo sapiens, UniProt O95793-2 102-274, R209A)
[12] = molecular target: dsRBD3/4 E110A L113A Q212A Q215A (Homo sapiens, UniProt O95793-2 102-274, E110A;L113A;Q212A;Q215A)
[13] = molecular target: dsRBD3/4 I105A S106A S208A Q212A Q215A (Homo sapiens, UniProt O95793-2 102-274, I105A;S106A;S208A;Q212A;Q215A)
[14] = molecular target: dsRBD3/4 I105A S106A E110A L113A (Homo sapiens, UniProt O95793-2 102-274, I105A;S106A;E110A;L113A)
[15] = molecular target: dsRBD3 F109A (Homo sapiens, UniProt O95793-2 102-181, F109A)
[16] = molecular target: dsRBD4 S208A Q212A Q215A (Homo sapiens, UniProt O95793-2 205-274, S208A;Q212A;Q215A)
[17] = molecular target: dsRBD3/4 R234A R236A (Homo sapiens, UniProt O95793-2 102-274, R234A;R236A)
[18] = molecular target: dsRBD3/4 S208A Q212A Q215A (Homo sapiens, UniProt O95793-2 102-274, S208A;Q212A;Q215A)
[19] = molecular target: dsRBD3/4 K133A (Homo sapiens, UniProt O95793-2 102-274, K133A)
[20] = molecular target: dsRBD3/4 F109A R209A (Homo sapiens, UniProt O95793-2 102-274, F109A;R209A)
[21] = molecular target: STAU1 dsRBD3/4 (Homo sapiens, UniProt O95793-2 102-274)
Sequence of STAU1 dsRBD3/4 (O95793 183-355): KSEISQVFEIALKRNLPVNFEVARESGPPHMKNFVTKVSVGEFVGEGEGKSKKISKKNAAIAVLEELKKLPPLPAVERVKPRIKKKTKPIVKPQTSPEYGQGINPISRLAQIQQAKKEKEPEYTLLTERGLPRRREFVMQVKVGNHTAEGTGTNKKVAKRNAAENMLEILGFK

Sequence of dsRBD3/4 F109A (O95793 183-355 F190A): as the sequence (O95793 183-355) above, with F8A counted along it
Sequence of dsRBD3/4 I105A S106A E110A L113A (O95793 183-355 I186A/S187A/E191A/L194A): as the sequence (O95793 183-355) above, with I4A, S5A, E9A, L12A counted along it
Sequence of dsRBD3/4 I105A S106A (O95793 183-355 I186A/S187A): as the sequence (O95793 183-355) above, with I4A, S5A counted along it
Sequence of dsRBD3/4 Q212A Q215A (O95793 183-355 Q293A/Q296A): as the sequence (O95793 183-355) above, with Q111A, Q114A counted along it
Sequence of dsRBD3 I105A S106A (O95793 183-262 I186A/S187A): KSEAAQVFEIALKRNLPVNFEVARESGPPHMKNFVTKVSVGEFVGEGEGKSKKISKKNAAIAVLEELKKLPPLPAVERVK
Sequence of dsRBD3 E110A L113A (O95793 183-262 E191A/L194A): as the sequence (O95793 183-262 I186A/S187A) above, with A4I, A5S, E9A, L12A counted along it
Sequence of dsRBD3/4 E110A L113A Q212A Q215A (O95793 183-355 E191A/L194A/Q293A/Q296A): as the sequence (O95793 183-355) above, with E9A, L12A, Q111A, Q114A counted along it
Sequence of dsRBD3/4 R234A R236A (O95793 183-355 R315A/R317A): as the sequence (O95793 183-355) above, with R133A, R135A counted along it
Sequence of dsRBD3/4 E110A L113A (O95793 183-355 E191A/L194A): as the sequence (O95793 183-355) above, with E9A, L12A counted along it
Sequence of dsRBD4 Q212A Q215A (O95793 286-355 Q293A/Q296A): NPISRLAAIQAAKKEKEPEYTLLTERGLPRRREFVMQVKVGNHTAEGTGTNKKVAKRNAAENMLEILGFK
Sequence of dsRBD4 S208A Q212A Q215A (O95793 286-355 S289A/Q293A/Q296A): as the sequence (O95793 286-355 Q293A/Q296A) above, with S4A counted along it
Sequence of STAU1 dsRBD3 (O95793 183-262): as the sequence (O95793 183-262 I186A/S187A) above, with A4I, A5S counted along it
Sequence of STAU1 dsRBD4 (O95793 286-355): as the sequence (O95793 286-355 Q293A/Q296A) above, with A8Q, A11Q counted along it
Sequence of dsRBD3/4 K133A (O95793 183-355 K214A): as the sequence (O95793 183-355) above, with K32A counted along it
Sequence of dsRBD3/4 S208A Q212A Q215A (O95793 183-355 S289A/Q293A/Q296A): as the sequence (O95793 183-355) above, with S107A, Q111A, Q114A counted along it
Sequence of dsRBD3/4 I105A S106A S208A Q212A Q215A (O95793 183-355 I186A/S187A/S289A/Q293A/Q296A): as the sequence (O95793 183-355) above, with I4A, S5A, S107A, Q111A, Q114A counted along it
Sequence of dsRBD3/4 F109A R209A (O95793 183-355 F190A/R290A): as the sequence (O95793 183-355) above, with F8A, R108A counted along it
Sequence of dsRBD3/4 R209A (O95793 183-355 R290A): as the sequence (O95793 183-355) above, with R108A counted along it
Sequence of dsRBD3/4 S208A (O95793 183-355 S289A): as the sequence (O95793 183-355) above, with S107A counted along it
Sequence of dsRBD3 F109A (O95793 183-262 F190A): as the sequence (O95793 183-262 I186A/S187A) above, with A4I, A5S, F8A counted along it

Question: For GGCAGAAGCUGCCUCUUCGGAGGCAGUUUCUGCC (structured_RNA) [top 2/3 ARF1 SBS (sARF1 SBS)], which Kd [1] is on record?
Answer: 147 ± 35.6 nM

Question: And the Kd [2]?
Answer: 31.5 ± 1.7 nM

Question: And the Kd [3]?
Answer: 29.7 ± 5.8 nM

Question: What about the Kd [4] of the same binder?
Answer: 74.8 ± 17.6 nM

Question: What about the Kd [5] of the same binder?
Answer: 121 ± 15 nM

Question: And the Kd [6]?
Answer: 28 ± 4.4 nM

Question: And the Kd [7]?
Answer: 18.5 ± 4.3 nM

Question: And the Kd [8]?
Answer: 15.3 ± 0.7 nM

Question: And the Kd [9]?
Answer: 41.4 ± 1.5 nM

Question: What about the Kd [10] of the same binder?
Answer: 28.8 ± 2.7 nM

Question: What about the Kd [11] of the same binder?
Answer: 17.7 ± 4.1 nM

Question: And the Kd [12]?
Answer: 18.5 ± 1.1 nM

Question: What about the Kd [13] of the same binder?
Answer: 43.7 ± 5.2 nM

Question: And the Kd [14]?
Answer: 21.8 ± 6.4 nM

Question: What about the Kd [15] of the same binder?
Answer: 98.2 ± 8.7 nM

Question: What about the Kd [16] of the same binder?
Answer: 390 ± 38.4 nM

Question: And the Kd [17]?
Answer: 26 ± 9.1 nM

Question: What about the Kd [18] of the same binder?
Answer: 87.2 ± 3 nM

Question: What about the Kd [19] of the same binder?
Answer: 23.2 ± 9.7 nM

Question: What about the Kd [20] of the same binder?
Answer: 27.7 ± 5.5 nM

Question: And the Kd [21]?
Answer: 17.8 ± 4.3 nM

Question: With GGAGUGCCAGAAGCUACGGUUUCUGGUACUCC (structured_RNA) [bottom 2/3 ARF1 SBS] as the binder, how does the Kd [21] read?
Answer: 31 ± 0.1 nM

Question: For GGCGAGUGCCAGAAGCUGUCUCCUUCGGGAGGCAGUUUCUGGUACUCGCC (structured_RNA) [long ARF1 SBS (19 bp, UUCG loop)], which Kd [21] is on record?
Answer: 26.5 ± 2.9 nM
